# Assay results from the supplement of paper PMC11316812.
# ± gives the standard deviation of the averaged measurements.
# Legend:
# hTERT-HMEC = test: percentage of EdU-negative (G0-arrested) nuclei per well, 72 h; higher = more G0 arrest; settings: reference: sequence is the full UniProt precursor, the tested protein was the secreted form or ectodomain
# MCF7 = test: as above; settings: reference: sequence is the full UniProt precursor, the tested protein was the secreted form or ectodomain
# [1] = protein concentration 0.0257143 µM
# [2] = protein concentration 0.257143 µM
# [3] = protein concentration 0.03125 µM
# [4] = protein concentration 0.3125 µM
# [5] = protein concentration 0.0105714 µM
# [6] = protein concentration 0.105714 µM
# [7] = protein concentration 0.0220325 µM
# [8] = protein concentration 0.220325 µM
# 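Also: secreted proteins added to cultured cells, EdU pulse at the end, nuclei found by Hoechst imaging, EdU status from nuclear versus surrounding ring intensity ratio, PBS as neutral control.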
sequence,measurement,setting,value
MVGAMWKVIVSLVLLMPGPCDGLFRSLYRSVSMPPKGDSGQPLFLTPYIEAGKIQKGRELSLVGPFPGLNMKSYAGFLTVNKTYNSNLFFWFFPAQIQPEDAPVVLWLQGGPGGSSMFGLFVEHGPYVVTSNMTLRDRDFPWTTTLSMLYIDNPVGTGFSFTDDTHGYAVNEDDVARDLYSALIQFFQIFPEYKNNDFYVTGESYAGKYVPAIAHLIHSLNPVREVKINLNGIAIGDGYSDPESIIGGYAEFLYQIGLLDEKQKKYFQKQCHECIEHIRKQNWFEAFEILDKLLDGDLTSDPSYFQNVTGCSNYYNFLRCTEPEDQLYYVKFLSLPEVRQAIHVGNQTFNDGTIVEKYLREDTVQSVKPWLTEIMNNYKVLIYNGQLDIIVAAALTERSLMGMDWKGSQEYKKAEKKVWKIFKSDSEVAGYIRQAGDFHQVIIRGGGHILPYDQPLRAFDMINRFIYGKGWDPYVG [Q9H3G5],percentage of EdU-negative,hTERT-HMEC; protein concentration 0.014 µM,5.19 ± 0.19%
same,percentage of EdU-negative,hTERT-HMEC; protein concentration 0.14 µM,6.64 ± 0.14%
same,percentage of EdU-negative,MCF7; protein concentration 0.014 µM,26.1 ± 4.2%
same,percentage of EdU-negative,MCF7; protein concentration 0.14 µM,29.1 ± 0.47%
MYLSICCCFLLWAPALTLKNLNYSVPEEQGAGTVIGNIGRDARLQPGLPPAERGGGGRSKSGSYRVLENSAPHLLDVDADSGLLYTKQRIDRESLCRHNAKCQLSLEVFANDKEICMIKVEIQDINDNAPSFSSDQIEMDISENAAPGTRFPLTSAHDPDAGENGLRTYLLTRDDHGLFGLDVKSRGDGTKFPELVIQKALDREQQNHHTLVLTALDGGEPPRSATVQINVKVIDSNDNSPVFEAPSYLVELPENAPLGTVVIDLNATDADEGPNGEVLYSFSSYVPDRVRELFSIDPKTGLIRVKGNLDYEENGMLEIDVQARDLGPNPIPAHCKVTVKLIDRNDNAPSIGFVSVRQGALSEAAPPGTVIALVRVTDRDSGKNGQLQCRVLGGGGTGGGGGLGGPGGSVPFKLEENYDNFYTVVTDRPLDRETQDEYNVTIVARDGGSPPLNSTKSFAIKILDENDNPPRFTKGLYVLQVHENNIPGEYLGSVLAQDPDLGQNGTVSYSILPSHIGDVSIYTYVSVNPTNGAIYALRSFNFEQTKAFEFKVLAKDSGAPAHLESNATVRVTVLDVNDNAPVIVLPTLQNDTAELQVPRNAGLGYLVSTVRALDSDFGESGRLTYEIVDGNDDHLFEIDPSSGEIRTLHPFWEDVTPVVELVVKVTDHGKPTLSAVAKLIIRSVSGSLPEGVPRVNGEQHHWDMSLPLIVTLSTISIILLAAMITIAVKCKRENKEIRTYNCRIAEYSHPQLGGGKGKKKKINKNDIMLVQSEVEERNAMNVMNVVSSPSLATSPMYFDYQTRLPLSSPRSEVMYLKPASNNLTVPQGHAGCHTSFTGQGTNASETPATRMSIIQTDNFPAEPNYMGSRQQFVQSSSTFKDPERASLRDSGHGDSDQADSDQDTNKGSCCDMSVREALKMKTTSTKSQPLEQEPEECVNCTDECRVLGHSDRCWMPQFPAANQAENADYRTNLFVPTVEANVETETYETVNPTGKKTFCTFGKDKREHTILIANVKPYLKAKRALSPLLQEVPSASSSPTKACIEPCTSTKGSLDGCEAKPGALAEASSQYLPTDSQYLSPSKQPRDPPFMASDQMARVFADVHSRASRDSSEMGAVLEQLDHPNRDLGRESVDAEEVVREIDKLLQDCRGNDPVAVRK,percentage of EdU-negative,hTERT-HMEC; [1],4.62 ± 0.4%
same,percentage of EdU-negative,hTERT-HMEC; [2],7.27 ± 0.33%
same,percentage of EdU-negative,MCF7; [1],23.2 ± 3%
same,percentage of EdU-negative,MCF7; [2],26.6 ± 0.28%
MEKLLCFLVLTSLSHAFGQTDMSRKAFVFPKESDTSYVSLKAPLTKPLKAFTVCLHFYTELSSTRGYSIFSYATKRQDNEILIFWSKDIGYSFTVGGSEILFEVPEVTVAPVHICTSWESASGIVEFWVDGKPRVRKSLKKGYTVGAEASIILGQEQDSFGGNFEGSQSLVGDIGNVNMWDFVLSPDEINTIYLGGPFSPNVLNWRALKYEVQGEVFTKPQLWP,percentage of EdU-negative,hTERT-HMEC; [3],4.41 ± 0.15%
same,percentage of EdU-negative,hTERT-HMEC; [4],5.8 ± 1.1%
same,percentage of EdU-negative,MCF7; [3],24.1 ± 2.6%
same,percentage of EdU-negative,MCF7; [4],25.3 ± 0.79%
MVLLRVLILLLSWAAGMGGQYGNPLNKYIRHYEGLSYNVDSLHQKHQRAKRAVSHEDQFLRLDFHAHGRHFNLRMKRDTSLFSDEFKVETSNKVLDYDTSHIYTGHIYGEEGSFSHGSVIDGRFEGFIQTRGGTFYVEPAERYIKDRTLPFHSVIYHEDDINYPHKYGPQGGCADHSVFERMRKYQMTGVEEVTQIPQEEHAANGPELLRKKRTTSAEKNTCQLYIQTDHLFFKYYGTREAVIAQISSHVKAIDTIYQTTDFSGIRNISFMVKRIRINTTADEKDPTNPFRFPNIGVEKFLELNSEQNHDDYCLAYVFTDRDFDDGVLGLAWVGAPSGSSGGICEKSKLYSDGKKKSLNTGIITVQNYGSHVPPKVSHITFAHEVGHNFGSPHDSGTECTPGESKNLGQKENGNYIMYARATSGDKLNNNKFSLCSIRNISQVLEKKRNNCFVESGQPICGNGMVEQGEECDCGYSDQCKDECCFDANQPEGRKCKLKPGKQCSPSQGPCCTAQCAFKSKSEKCRDDSDCAREGICNGFTALCPASDPKPNFTDCNRHTQVCINGQCAGSICEKYGLEECTCASSDGKDDKELCHVCCMKKMDPSTCASTGSVQWSRHFSGRTITLQPGSPCNDFRGYCDVFMRCRLVDADGPLARLKKAIFSPELYENIAEWIVAHWWAVLLMGIALIMLMAGFIKICSVHTPSSNPKLPPPKPLPGTLKRRRPPQPIQQPQRQRPRESYQMGHMRR,percentage of EdU-negative,hTERT-HMEC; [5],6.02 ± 1.1%
same,percentage of EdU-negative,hTERT-HMEC; [6],6.36 ± 1.3%
same,percentage of EdU-negative,MCF7; [5],24.8 ± 1.8%
same,percentage of EdU-negative,MCF7; [6],26.2 ± 1.3%
MAGLMTIVTSLLFLGVCAHHIIPTGSVVIPSPCCMFFVSKRIPENRVVSYQLSSRSTCLKAGVIFTTKKGQQFCGDPKQEWVQRYMKNLDAKQKKASPRARAVAVKGPVQRYPGNQTTC,percentage of EdU-negative,hTERT-HMEC; [7],4.96 ± 0.78%
same,percentage of EdU-negative,hTERT-HMEC; [8],5.694 ± 0.035%
same,percentage of EdU-negative,MCF7; [7],23.9 ± 1.6%
same,percentage of EdU-negative,MCF7; [8],24.7 ± 0.47%
MRSLLLLSAFCLLEAALAAEVKKPAAAAAPGTAEKLSPKAATLAERSAGLAFSLYQAMAKDQAVENILVSPVVVASSLGLVSLGGKATTASQAKAVLSAEQLRDEEVHAGLGELLRSLSNSTARNVTWKLGSRLYGPSSVSFADDFVRSSKQHYNCEHSKINFRDKRSALQSINEWAAQTTDGKLPEVTKDVERTDGALLVNAMFFKPHWDEKFHHKMVDNRGFMVTRSYTVGVMMMHRTGLYNYYDDEKEKLQIVEMPLAHKLSSLIILMPHHVEPLERLEKLLTKEQLKIWMGKMQKKAVAISLPKGVVEVTHDLQKHLAGLGLTEAIDKNKADLSRMSGKKDLYLASVFHATAFELDTDGNPFDQDIYGREELRSPKLFYADHPFIFLVRDTQSGSLLFIGRLVRPKGDKMRDEL,percentage of EdU-negative,hTERT-HMEC; [3],4.8 ± 0.84%
same,percentage of EdU-negative,hTERT-HMEC; [4],7.55 ± 1%
same,percentage of EdU-negative,MCF7; [3],26.6 ± 2.3%
same,percentage of EdU-negative,MCF7; [4],27.2 ± 1.1%
